Reference: publication PMC3882260, “Defining the Ligand Specificity of the Deleted in Colorectal Cancer (DCC) Receptor” (PLoS ONE, 2014)

Target: T1, extracellular domain of human DCC (M1-N1097) with a C-terminal Fc tag (human, UniProt P43146 26-1097)
T1 construct: signal peptide in the construct; Deleted in Colorectal Cancer (DCC), human, extracellular domain, amino acids 1-1097; On the array it was loaded on protein-A microbeads 1:1 with Cy5-labeled human IgG; in SPR it was amine-coupled to the chip; also called DCC-Fc; source: CHO cells, transient transfection, purified (protein A-Sepharose, gel filtration); not shown: Fc (human IgG), C-terminal, kept
Assay: peptide or protein array; DCC-Fc mixed 1:1 with Cy5-labeled hIgG on multivalent protein-A microbeads, incubated with extracellular protein microarrays (Library 1: 1,334 samples; Library 2: 624 samples) on epoxysilane slides; washed with PBS-T; Cy5 fluorescence; two replicate screens
Settings: both partners purified

T1 sequence (P43146 26-1097): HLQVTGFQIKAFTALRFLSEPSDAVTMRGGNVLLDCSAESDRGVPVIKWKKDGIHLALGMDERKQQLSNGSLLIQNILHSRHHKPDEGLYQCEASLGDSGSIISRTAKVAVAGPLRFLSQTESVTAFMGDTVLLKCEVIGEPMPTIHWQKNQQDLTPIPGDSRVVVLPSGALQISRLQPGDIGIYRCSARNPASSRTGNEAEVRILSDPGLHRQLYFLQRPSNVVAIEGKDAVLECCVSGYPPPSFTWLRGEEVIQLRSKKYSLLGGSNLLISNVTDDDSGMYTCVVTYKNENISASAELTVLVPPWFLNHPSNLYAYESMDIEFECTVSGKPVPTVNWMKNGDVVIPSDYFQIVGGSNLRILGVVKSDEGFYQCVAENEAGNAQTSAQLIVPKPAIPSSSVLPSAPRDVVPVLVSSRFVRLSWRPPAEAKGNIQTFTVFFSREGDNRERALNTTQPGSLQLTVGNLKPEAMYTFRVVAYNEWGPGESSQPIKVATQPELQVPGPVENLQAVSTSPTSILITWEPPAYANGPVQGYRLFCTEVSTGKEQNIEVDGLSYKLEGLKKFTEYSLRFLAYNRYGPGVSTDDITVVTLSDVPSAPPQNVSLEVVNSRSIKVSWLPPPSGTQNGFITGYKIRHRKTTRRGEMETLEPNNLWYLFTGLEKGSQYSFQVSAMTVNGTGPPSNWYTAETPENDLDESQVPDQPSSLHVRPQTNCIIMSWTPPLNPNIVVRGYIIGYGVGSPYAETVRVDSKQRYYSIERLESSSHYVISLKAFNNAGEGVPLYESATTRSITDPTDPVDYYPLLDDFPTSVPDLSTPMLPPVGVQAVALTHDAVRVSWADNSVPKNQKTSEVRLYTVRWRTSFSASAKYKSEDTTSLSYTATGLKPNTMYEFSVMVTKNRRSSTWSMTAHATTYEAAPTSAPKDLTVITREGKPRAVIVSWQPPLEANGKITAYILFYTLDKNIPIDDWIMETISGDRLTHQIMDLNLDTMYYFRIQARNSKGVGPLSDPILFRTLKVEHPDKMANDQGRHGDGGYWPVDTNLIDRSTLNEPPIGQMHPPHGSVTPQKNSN

B1: full length CBLN4 C-terminal His (ligand, human, UniProt Q9NTU7 28-201, looked up)
chain: QNDTEPIVLEGKCLVVCDSNPATDSKGSSSSPLGISVRAANSKVAFSAVRSTNHEPSEMSNKTRIIYFDQILVNVGNFFTLESVFVAPRKGIYSFSFHVIKVYQSQTIQVNLMLNGKPVISAFAGDKDVTREAATNGVLLYLDKEDKVYLKLEKGNLVGGWQYSTFSGFLVFPL
notes: Cerebellin 4 (CBLN4), full length; also called CBLN4-His
- binding result: binds
